Measurements reported in patent publication US10004800.

Tests used:
[1] = biological target: B.63521 (HIV-1); assay: SPR
[2] = biological target: C.CH505 (HIV-1); assay: SPR

Substance	Kd [1] [nM]	Kd [2] [nM]
CH103	2.4	20
CH104	7.1	8.9
CH105	7	7.4
CH106	5.1	5.8
